Test results: EP1798242B1

What was measured:
[1] = biological target: IGF-IR exprimé sur des cellules d'insectes Sf9 (baculovirus) (UniProt P08069); assay: FACScan on Sf9 insect cells expressing IGF-IR (baculovirus), anti-mouse FITC secondary; Tableau 1, column Cellules IGF1R +
[2] = biological target: récepteur à l'insuline IR exprimé sur des cellules d'insectes Sf9 (baculovirus) (UniProt P06213); assay: FACScan on Sf9 insect cells expressing IR (baculovirus), anti-mouse FITC secondary; Tableau 1, column Cellules IR +
[3] = biological target: récepteur à l'insuline IR exprimé sur des cellules d'insectes Sf9 (baculovirus) (UniProt P06213); assay: FACScan on Sf9 insect cells expressing IR (baculovirus), secondary antibody alone; Tableau 1, column Cellules IR +
[4] = biological target: IGF-IR exprimé sur des cellules d'insectes Sf9 (baculovirus) (UniProt P08069); assay: FACScan on Sf9 insect cells expressing IGF-IR (baculovirus), secondary antibody alone; Tableau 1, column Cellules IGF1R +

| Substance | MFI (Moyenne de l'intensité de fluorescence) [1] | MFI (Moyenne de l'intensité de fluorescence) [2] | MFI (Moyenne de l'intensité de fluorescence) [3] | MFI (Moyenne de l'intensité de fluorescence) [4] |
| --- | --- | --- | --- | --- |
| AcM commercial αIR3 (anti-IGF-IR) (antibody) | 35 | 32 |  |  |
| Anti-souris FITC (antibody) |  |  | 13 | 9 |
